What was measured:
[1] = Sensitivity of parental chimera versus wild type α7-nAChR, AZD-0328
From the text: (§1) To generate LGICs that conduct anion current following exposure to non-native small molecule agonists of the human α7-nAChR, chimeric ligand gated ion channel (LGIC) receptors comprising the ligand binding domain derived from the human α7 nicotinic acetylcholine receptor (α7-nAChR) and the chloride-conducting ion pore domain derived from the human GlyR1α were genetically engineered.

[2] = Sensitivity of parental chimera versus wild type α7-nAChR, ABT-126
From the text: as §1

[3] = Sensitivity of parental chimera versus wild type α7-nAChR, acetylcholine
From the text: as §1

[4] = Sensitivity of parental chimera versus wild type α7-nAChR, Facinicline/RG3487
From the text: as §1

[5] = Sensitivity of parental chimera versus wild type α7-nAChR, nicotine
From the text: as §1

[6] = Sensitivity of parental chimera versus wild type α7-nAChR, TC-6987
From the text: as §1

[7] = YFP quench plate reader assay, response to TC-5619; format: cell-based; conditions: LX293T YFP reporter cells
From the text: (§2) FIGS. 1A-FIG. 1G show the heat maps of the percent quench of YFP fluorescence in the mutants of the engineered chimeric receptor SEQ ID NO:33 that comprise the indicated double amino acid substitutions following stimulation by various doses of either acetylcholine or the indicated non-native ligand. Ligand doses are written across the top of each chart. Numbers in the boxes indicate the absolute amount of quench observed. Dark blue=80% maximal quench of YFP reporter. Light blue=quench of 30-80%. White=10-30%. Orange=0-10% quench. Negative values represent non-responders that have a negative quench due to a stimulation artifact. SEQ ID NO:29 is a non-responding chimera used as a negative control. Abbreviations for non-native ligand names: abt: ABT-126; ach: acetylcholine; apn: APN-1125; azd: AZD-0328; brd: TC-5619; fac: RG3487; tc6: TC-6987.
(§3) Tables 2-8 below lists percent quench of YFP fluorescence following stimulation of the indicated engineered receptor by various doses of either acetylcholine or the non-native ligand.
(§4) To screen these mutant LGICs for those having novel response profiles to ligands, an anion reporter assay was developed to assess the function of channels in a high throughput format. In this assay, cells expressing a YFP reporter whose fluorescence is quenched in the presence of anion are transfected with DNA encoding the channel of interest. Upon exposure to ligand, channels that are activated will flux anion, resulting in a dose-dependent quench of the YFP that can be detected on a plate reader.
(§5) Lenti-X 293T cells (LX293T, Clontech) were maintained in DMEM containing 10% FBS and 1% penicillin/streptomycin (Invitrogen). […] Two days before assay, cells were split at a density of 20,000 cells/well in a 96-well tissue culture plate coated with poly-d lysine (Thermo Scientific). The next day, the cells were transiently transfected with 0.1 μg of DNA per well using standard Fugene protocol (Promega). On the day of assay, cells were washed 2 times in 1× extracellular solution (1×ECS: 140 mM NaCl, 5 mM KCl, 1 mM MgCl2, 2 mM CaCl2, 10 mM HEPES, 10 mM glucose, pH 7.2, mOsms 300). After the last wash, 100 μL of 1×ECS was added to the wells and the plate was incubated at 37° C. for 30 min. While incubating the plate, the drugs were diluted to a 2× concentration in 1×ECS-NaI (same components as 1×ECS except the 140 mM NaCl was replaced by 140 mM NaI). The plates were then read on a Flexstation3 (Molecular Devices). Each well, 8 wells at a time, of the plate is read for 2 min using a Flexstation3 (Molecular Devices) as follows: 1) a baseline YFP fluorescence is read for 17 sec, 2) 100 μL of ligand is added, and 3) the changes in YFP fluorescence are then measured every 1.3 sec for the remaining time.
(§6) FIG. 1 provides heat maps of the percent quench of YFP fluorescence following stimulation by various doses of either acetylcholine or the non-native ligand as indicated in the Figure. A positive fluorescence signal, as indicated by blue shaded cells, indicate that the engineered receptor is activated by the non-native ligand at that concentration. […] Table 12 lists the EC50 values for the indicated double mutants to acetylcholine (Ach) and TC-5619 as determined from the YFP fluorescence plate reader experiment.

[8] = YFP quench plate reader assay, response to RG3487; format: cell-based; conditions: LX293T YFP reporter cells
From the text: as §2, §3, §4, §5, §6

[9] = High throughput electrophysiology in HEK293T cells, RG-3487; format: cell-based
Procedure: To confirm the EC50s determined by plate reader as well as develop a better understanding of maximum current flow, the engineered receptors were subjected to high throughput electrophysiology system, as described below. For HEK293T studies, cDNAs encoding ion channels were cloned into pcDNA3.1 using standard recombination techniques. HEK293T cells from Clontech (Lenti-X™ 293T Cell Line) were cultured in DMEM supplemented with 10% FBS and 1% Pen/Strep to 40-50% confluence using standard cell culture protocols, transfected with ion channel plasmids at a concentration of 18 μg per 15 cm dish using Fugene 6, and grown for an additional 24 hours. Cells were then assayed on a electrophysiological system (IonFluxHT and/or Mercury, Fluxion Biosciences) in which dose-response relationships may be assessed through a microfluidics-based platform for establishing whole cell configurations. […] Data were then analyzed off-line using custom Python scripts to convert data to .csv format, re-plot traces, and apply QC measurements to reject unstable recordings (i.e. thresholding based on access resistance and/or standard deviation in baseline, as well as artifact rejection). Peak currents were then calculated and population data were fit using a 4-parameter logistic equation as described by the Hill Equation. […]

[10] = YFP quench plate reader assay, response to AZD-0328; format: cell-based; conditions: LX293T YFP reporter cells
From the text: as §2, §3, §4, §5, §6

[11] = YFP quench plate reader assay, response to acetylcholine; format: cell-based; conditions: LX293T YFP reporter cells
From the text: as §2, §3, §4, §5, §6

[12] = YFP quench plate reader assay, response to TC-6987; format: cell-based; conditions: LX293T YFP reporter cells
From the text: as §2, §3, §4, §5, §6

[13] = YFP quench plate reader assay, response to APN-1125; format: cell-based; conditions: LX293T YFP reporter cells
From the text: as §2, §3, §4, §5, §6

[14] = High throughput electrophysiology in HEK293T cells, AZD-0328; format: cell-based
Procedure: To confirm the EC50s determined by plate reader as well as develop a better understanding of maximum current flow, the engineered receptors were subjected to high throughput electrophysiology system, as described below. For HEK293T studies, cDNAs encoding ion channels were cloned into pcDNA3.1 using standard recombination techniques. HEK293T cells from Clontech (Lenti-X™ 293T Cell Line) were cultured in DMEM supplemented with 10% FBS and 1% Pen/Strep to 40-50% confluence using standard cell culture protocols, transfected with ion channel plasmids at a concentration of 18 μg per 15 cm dish using Fugene 6, and grown for an additional 24 hours. Cells were then assayed on a electrophysiological system (IonFluxHT and/or Mercury, Fluxion Biosciences) in which dose-response relationships may be assessed through a microfluidics-based platform for establishing whole cell configurations. Ensemble plates were primed with extracellular buffer (140 mM NaCl, 5 mM KCl, 2 mM CaCl2), 1 mM MgCl2, 10 mM HEPES, and 10 mM glucose, pH 7.2 with NaOH, mOsm 310), intracellular buffer (145 mM CsCl, 2 mM CaCl2, 2 mM MgCl2, 10 mM HEPES, and 10 mM EGTA, pH 7.2 with CsOH, mOsm 305), as adapted from Lynagh and Lynch, and test compounds (stocks prepared fresh) diluted in extracellular buffer. Cells were then released from the plate with Accutase, centrifuged, resuspended in extracellular buffer, and loaded into Ensemble plates. Cells were then subjected to a standard protocol for priming, trapping, breaking, and establishing whole cell configuration, with cells held at −60 mV throughout the recording. After recording baseline, progressive doses of test compounds were applied using the IonFlux software to assess dose response relationships. Data were then analyzed off-line using custom Python scripts to convert data to .csv format, re-plot traces, and apply QC measurements to reject unstable recordings (i.e. thresholding based on access resistance and/or standard deviation in baseline, as well as artifact rejection). Peak currents were then calculated and population data were fit using a 4-parameter logistic equation as described by the Hill Equation. Currents were measured on an automated patch clamp system (Fluxion Biosciences) following 1 second addition of drug and the EC50 values calculated are tabulated below in Table 13.

[15] = YFP quench plate reader assay, response to ABT-126; format: cell-based; conditions: LX293T YFP reporter cells
From the text: as §2, §3, §4, §5, §6

B1: SEQ ID NO: 33: parental CHRNA7/GLRA1 chimera: α7-nAChR ligand binding domain with GlyRα1 Cys-loop, fused to GlyRα1 ion pore domain (protein)
chain: MRCSPGGVWLALAASLLHVSLQGEFQRKLYKELVKNYNPLERPVANDSQPLTVYFSLSLLQIMDVDEKNQVLTTNIWLQMSWTDHYLQWNVSEYPGVKTVRFPDGQIWKPDILLYNSADERFDATFHTNVLVNSSGHCQYLPPGIFKSSCPMDLKNFPMDVQTCKLKFGSWSYGGWSLDLQMQEADISGYIPNGEWDLVGIPGKRSERFYECCKEPYPDVTFTVTMRRRMGYYLIQMYIPSLLIVILSWISFWINMDAAPARVGLGITTVLTMTTQSSGSRASLPKVSYVKAIDIWMAVCLLFVFSALLEYAAVNFVSRQHKELLRFRRKRRHHKSPMLNLFQEDEAGEGRFNFSAYGMGPACLQAKDGISVKGANNSNTTNPPPAPSKSPEEMRKLFIQRAKKIDKISRIGFPMAFLIFNMFYWIIYKIVRREDVHNQ
modifications: synthetic sequence of chimeric LGIC
[1]
  fold more sensitive to AZD-0328 than wild type: approximately 3 fold
[2]
  sensitivity to ABT-126 compared to wild type α7-nAChR: approximately as sensitive
[3]
  sensitivity to acetylcholine compared to wild type α7-nAChR: approximately as sensitive
[4]
  fold more sensitive to Facinicline/RG3487 than wild type: ~10 fold
[5]
  fold less sensitive to nicotine than wild type: ~2 fold
[6]
  sensitivity to TC-6987 compared to wild type α7-nAChR: approximately as sensitive
[6]; similar to wild type
  type of agonist activity of TC-6987 on the receptor: partial agonist activity

B2: L131D, S172D in SEQ ID NO: 33: engineered chimeric α7-nAChR/GlyRα1 LGIC receptor: SEQ ID NO: 33 with substitutions L131D and S172D (protein)
chain: MRCSPGGVWLALAASLLHVSLQGEFQRKLYKELVKNYNPLERPVANDSQPLTVYFSLSLLQIMDVDEKNQVLTTNIWLQMSWTDHYLQWNVSEYPGVKTVRFPDGQIWKPDILLYNSADERFDATFHTNVDVNSSGHCQYLPPGIFKSSCPMDLKNFPMDVQTCKLKFGSWDYGGWSLDLQMQEADISGYIPNGEWDLVGIPGKRSERFYECCKEPYPDVTFTVTMRRRMGYYLIQMYIPSLLIVILSWISFWINMDAAPARVGLGITTVLTMTTQSSGSRASLPKVSYVKAIDIWMAVCLLFVFSALLEYAAVNFVSRQHKELLRFRRKRRHHKSPMLNLFQEDEAGEGRFNFSAYGMGPACLQAKDGISVKGANNSNTTNPPPAPSKSPEEMRKLFIQRAKKIDKISRIGFPMAFLIFNMFYWIIYKIVRREDVHNQ
modifications: synthetic sequence of chimeric LGIC
[7]; 1 nM TC-5619
  percent quench of YFP fluorescence, 1 nM brd: −1.24%
[7]; 3 nM TC-5619
  percent quench of YFP fluorescence, 3 nM brd: 0.25%
[7]; 10 nM TC-5619
  percent quench of YFP fluorescence, 10 nM brd: −2.57%
[7]; 30 nM TC-5619
  percent quench of YFP fluorescence, 30 nM brd: 0.78%
[7]; 100 nM TC-5619
  percent quench of YFP fluorescence, 100 nM brd: 4.51%
[7]; 300 nM TC-5619
  percent quench of YFP fluorescence, 300 nM brd: 30.97%
[7]; 1 uM TC-5619
  percent quench of YFP fluorescence, 1 uM brd: 44.41%
[8]; 30 nM RG3487
  percent quench of YFP fluorescence, 30 nM fac: 24.15%
[8]; 300 nM RG3487
  percent quench of YFP fluorescence, 300 nM fac: 80.17%
[8]; 10 uM RG3487
  percent quench of YFP fluorescence, 10 uM fac: 81.34%
[8]; 30 uM RG3487
  percent quench of YFP fluorescence, 30 uM fac: 79.9%
[9]
  fold increased potency to RG-3487 compared to wild type receptor: at least 10 fold
[10]; 100 nM AZD-0328
  percent quench of YFP fluorescence, 100 nM azd: 51.44%
[10]; 300 nM AZD-0328
  percent quench of YFP fluorescence, 300 nM azd: 77.12%
[10]; 30 uM AZD-0328
  percent quench of YFP fluorescence, 30 uM azd: 79.26%
[11]; 10 uM acetylcholine
  percent quench of YFP fluorescence, 10 uM ach: −12.91%
[11]; 100 uM acetylcholine
  percent quench of YFP fluorescence, 100 uM ach: −20.88%
[11]; 1 mM acetylcholine
  percent quench of YFP fluorescence, 1 mM ach: 79.85%
[11]; 3 mM acetylcholine
  percent quench of YFP fluorescence, 3 mM ach: 79.98%
[12]; 1 uM TC-6987
  percent quench of YFP fluorescence, 1 uM tc6: −18.24%
[12]; 10 uM TC-6987
  percent quench of YFP fluorescence, 10 uM tc6: −23.06%
[12]; 500 uM TC-6987
  percent quench of YFP fluorescence, 500 uM tc6: −19.3%
[13]; 100 nM APN-1125
  percent quench of YFP fluorescence, 100 nM apn: 71.72%
[13]; 1 uM APN-1125
  percent quench of YFP fluorescence, 1 uM apn: 77.26%
[13]; 30 uM APN-1125
  percent quench of YFP fluorescence, 30 uM apn: 77.5%
[14]
  fold increased potency towards AZD-0328 compared to wild type receptor: at least 10 fold
[15]; 50 nM ABT-126
  percent quench of YFP fluorescence, 50 nM abt: −3.19%
[15]; 100 nM ABT-126
  percent quench of YFP fluorescence, 100 nM abt: 7.58%
[15]; 300 nM ABT-126
  percent quench of YFP fluorescence, 300 nM abt: −1.65%
[15]; 1 uM ABT-126
  percent quench of YFP fluorescence, 1 uM abt: 31.29%
